Measurements: patent US20200369755A1 (PROTHENA BIOSCIENCES, published 2020)
Where no end group is shown, it is not given here.

Key:
Assay in all cases: peptide ELISA, biotinylated peptide on streptavidin plate; background-subtracted absorbance; positive from 0.2
352-366 = target: T1, 352-366 (also: biotinylated, site not given here)
T1 construct: also called tau peptide 352-366 (4R0N numbering)
T1 peptide: NVSSTGSIDMVDSPQ
Protocol: (§1) Additional peptides were used to model potential post-translational modifications of the C- and N-terminal ends of the protein.
(§2) Biotinylated peptides were bound to separate wells of a streptavidin-coated ELISA plate. The plate was blocked and treated with murine 3D6, followed by incubation with a horseradish peroxidase-conjugated anti-mouse antibody. After thorough washing, OPD was applied to the plate and allowed to develop. The plate was read at 450 nm absorbance. Background subtraction was performed with absorbance values from wells containing no primary antibody, and a threshold for positive binding was set to 0.2 absorbance units. […] (FIG. 1)

118-132 = target: T2, 118-132 (also: biotinylated, site not given here)
T2 peptide: PPAPKTPPSSGEPPK
Protocol: as §1, §2

46-60 = target: T3, 46-60 (also: biotinylated, site not given here)
T3 construct: also called tau peptide 46-60 (4R0N numbering)
T3 peptide: EEAGIGDTPSLEDEA
Protocol: as §1, §2

172-186 = target: T4, 172-186 (also: biotinylated, site not given here)
T4 construct: also called tau peptide 172-186 (4R0N numbering)
T4 peptide: RTPPKSPSSAKSRLQ
Protocol: as §1, §2

91-105 = target: T5, 91-105 (also: biotinylated, site not given here)
T5 construct: also called tau peptide 91-105 (4R0N numbering)
T5 peptide: TKIATPRGAAPPGQK
Protocol: as §1, §2

163-177 = target: T6, 163-177 (also: biotinylated, site not given here)
T6 peptide: REPKKVAVVRTPPKS
Protocol: as §1, §2

280-294 = target: T7, 280-294 (also: biotinylated, site not given here)
T7 construct: also called tau peptide 280-294 (4R0N numbering)
T7 peptide: EVKSEKLDFKDRVQS
Protocol: as §1, §2

208-222 = target: T8, 208-222 (also: biotinylated, site not given here)
T8 construct: also called tau peptide 208-222 (4R0N numbering)
T8 peptide: LKHQPGGGKVQIINK
Protocol: as §1, §2

316-330 = target: T9, 316-330 (also: biotinylated, site not given here)
T9 construct: also called tau peptide 316-330 (4R0N numbering)
T9 peptide: HKLTFRENAKAKTDH
Protocol: as §1, §2

235-249 = target: T10, 235-249 (also: biotinylated, site not given here)
T10 construct: also called tau peptide 235-249 (4R0N numbering)
T10 peptide: SKDNIKHVPGGGSVQ
Protocol: as §1, §2

334-348 = target: T11, 334-348 (also: biotinylated, site not given here)
T11 construct: also called tau peptide 334-348 (4R0N numbering)
T11 peptide: IVYKSPVVSGDTSPR
Protocol: as §1, §2

28-42 = target: T12, 28-42 (also: biotinylated, site not given here)
T12 construct: also called tau peptide 28-42 (4R0N numbering)
T12 peptide: GYTMHQDQEGDTDAG
Protocol: as §1, §2

289-303 = target: T13, 289-303 (also: biotinylated, site not given here)
T13 construct: also called tau peptide 289-303 (4R0N numbering)
T13 peptide: KDRVQSKIGSLDNIT
Protocol: as §1, §2

298-312 = target: T14, 298-312 (also: biotinylated, site not given here)
T14 construct: also called tau peptide 298-312 (4R0N numbering)
T14 peptide: SLDNITHVPGGGNKK
Protocol: as §1, §2

253-267 = target: T15, 253-267 (also: biotinylated, site not given here)
T15 construct: also called tau peptide 253-267 (4R0N numbering)
T15 peptide: KPVDLSKVTSKCGSL
Protocol: as §1, §2

82-96 = target: T16, 82-96 (also: biotinylated, site not given here)
T16 construct: also called tau peptide 82-96 (4R0N numbering)
T16 peptide: KKAKGADGKTKIATP
Protocol: as §1, §2

325-339 = target: T17, 325-339 (also: biotinylated, site not given here)
T17 construct: also called tau peptide 325-339 (4R0N numbering)
T17 peptide: KAKTDHGAEIVYKSP
Protocol: as §1, §2

244-258 = target: T18, 244-258 (also: biotinylated, site not given here)
T18 peptide: GGGSVQIVYKPVDLS
Protocol: as §1, §2

307-321 = target: T19, 307-321 (also: biotinylated, site not given here)
T19 construct: also called tau peptide 307-321 (4R0N numbering)
T19 peptide: GGGNKKIETHKLTFR
Protocol: as §1, §2

55-69 = target: T20, 55-69 (also: biotinylated, site not given here)
T20 construct: also called tau peptide 55-69 (4R0N numbering)
T20 peptide: SLEDEAAGHVTQARM
Protocol: as §1, §2

361-375 = target: T21, 361-375 (also: biotinylated, site not given here)
T21 peptide: MVDSPQLATLADEVS
Protocol: as §1, §2

binding result (352-366): no binding
binding result (118-132): no binding
binding result (46-60): no binding
binding result (172-186): no binding
binding result (91-105): no binding
binding result (163-177): no binding
binding result (280-294): no binding
binding result (208-222): no binding
binding result (316-330): no binding
binding result (235-249): no binding
binding result (334-348): no binding
binding result (28-42): no binding
binding result (289-303): no binding
binding result (298-312): no binding
binding result (253-267): no binding
binding result (82-96): no binding
binding result (325-339): no binding
binding result (244-258): no binding
binding result (307-321): no binding
binding result (55-69): no binding
binding result (361-375): no binding
B1: murine 3D6 monoclonal antibody (antibody, IgG1, V domains shown)
VH: EVQLQQSGADLVRPGALVKLSCKASGFNIKDYYLHWVRQRPEQGLEWIGWIDPENGDTVYDPKFQGKATITADTSSNTAYLQLGSLTSEDTAVYFCSTLDFWGQGTTLTVSS
VL: not shown
notes: Hybridoma-derived mouse antibody; also called m3D6; mouse 3D6
